According to patent publication US9187525B2, “Methods of treating ophthalmic diseases using NPR-B agonists” (Shire Orphan Therapies GmbH, dated 2015):
Numbered stars: 1 amine (or outer) side, 2 acyl side, 3 side chain; on linkers, the order of the positions; unused ones are H or OH. Square brackets hold non-standard residues; d marks the D form. Ends that are not written are not given here. * marks the point of attachment. 5119 = (1R,2R)-ethyl 2-aminocyclohexanecarboxylate, CCOC(=O)[C@@H]1CCCC[C@H]1N*; 5116 = (1S,2R)-2-aminocyclohexanecarboxamide, NC(=O)[C@H]1CCCC[C@H]1N*; Pro(trans-4-NH2) = O=C([C@@H]1C[C@@H](N[*:3])CN1[*:1])[*:2]; Sni = (S)-nipecotic acid, O=C([C@H]1CCCN([*:1])C1)[*:2]; cPrCO(1-aminomethyl) = O=C(C1(CN[*:1])CC1)[*:2]; dTle = CC(C)(C)[C@@H](N)C(=O)O; NMeL = CN[C@@H](CC(C)C)C(=O)O; Chg = N[C@H](C(=O)O)C1CCCCC1; NMeK = CN[C@@H](CCCCN)C(=O)O; orn(Me2) = not defined here; Nle = CCCC[C@H](N)C(=O)O; Octanoyl = CCCCCCCC(=O)*; dAbu = CC[C@@H](N)C(=O)O; 1270 = not defined here; 1859 = not defined here; 1860 = not defined here; 1906 = not defined here; 1934 = not defined here; 2797 = not defined here; 3791 = not defined here; 3806 = not defined here; 4956 = not defined here; 504 = not defined here; 559 = not defined here; 565 = not defined here; 873 = not defined here; 933 = not defined here; Che = not defined here; ala = not defined here; leu = not defined here; Ac3c = NC1(C(=O)O)CC1; Occ = octanoic acid

T1: natriuretic peptide receptor-B (human)
T1 chain: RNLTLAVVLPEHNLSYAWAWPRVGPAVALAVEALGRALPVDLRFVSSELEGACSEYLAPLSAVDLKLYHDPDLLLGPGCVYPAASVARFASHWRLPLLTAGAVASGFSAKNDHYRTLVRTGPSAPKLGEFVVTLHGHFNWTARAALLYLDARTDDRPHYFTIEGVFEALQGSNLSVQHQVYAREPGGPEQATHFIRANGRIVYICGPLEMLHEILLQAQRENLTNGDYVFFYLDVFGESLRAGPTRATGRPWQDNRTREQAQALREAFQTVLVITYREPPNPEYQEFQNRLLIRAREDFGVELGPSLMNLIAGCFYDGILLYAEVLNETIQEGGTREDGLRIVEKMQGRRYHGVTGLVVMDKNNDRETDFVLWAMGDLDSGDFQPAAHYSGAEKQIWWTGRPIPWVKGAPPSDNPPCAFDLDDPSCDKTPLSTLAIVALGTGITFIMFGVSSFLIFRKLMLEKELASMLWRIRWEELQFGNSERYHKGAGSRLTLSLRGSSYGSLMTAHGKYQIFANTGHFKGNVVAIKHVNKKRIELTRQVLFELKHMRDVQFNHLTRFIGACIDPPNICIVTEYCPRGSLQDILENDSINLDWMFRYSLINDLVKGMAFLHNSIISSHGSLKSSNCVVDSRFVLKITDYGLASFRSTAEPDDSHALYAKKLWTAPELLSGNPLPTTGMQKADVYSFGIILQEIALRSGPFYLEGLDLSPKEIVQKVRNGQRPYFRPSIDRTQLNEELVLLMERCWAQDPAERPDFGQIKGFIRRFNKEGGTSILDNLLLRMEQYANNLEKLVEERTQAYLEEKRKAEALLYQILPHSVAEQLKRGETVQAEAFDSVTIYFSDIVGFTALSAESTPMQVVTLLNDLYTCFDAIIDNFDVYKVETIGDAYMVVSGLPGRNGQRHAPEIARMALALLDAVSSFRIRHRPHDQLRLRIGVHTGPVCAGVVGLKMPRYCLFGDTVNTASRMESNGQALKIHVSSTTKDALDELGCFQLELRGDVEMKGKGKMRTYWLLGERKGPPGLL

B1: JAL-1936 (peptide)
peptide: [Occ][Sni]F[orn(Me2)]L[Pro(trans-4-NH2)][NMeL]DRI-NH2
modifications: reading uncertain; also: printed as Occ-Sni-Phe-orn(Me2)-Leu-Tap-Nml-Asp-Arg-Ile-NH2
B2: JAL-0792 (peptide)
peptide: Octanoyl-AAFGLKLDR[3791]
modifications: not fully specified (some residues); printed as Occ-ala-ala-Phe-Gly-Leu-Lys-Leu-Asp-Arg-3791; reading uncertain
B3: JAL-0752 (peptide)
peptide: Octanoyl-[dA][dA]FGLKLDR[565]
modifications: reading uncertain; also: printed as Occ-ala-ala-Phe-Gly-Leu-Lys-Leu-Asp-Arg-565
B4: JAL-0791 (peptide)
peptide: Octanoyl-AAFGLKLDR[559]
modifications: not fully specified (some residues); printed as Occ-ala-ala-Phe-Gly-Leu-Lys-Leu-Asp-Arg-559; reading uncertain
B5: JAL-0751 (peptide)
peptide: Octanoyl-[dA][dA]FGLKLDR[3806]
modifications: reading uncertain; also: printed as Occ-ala-ala-Phe-Gly-Leu-Lys-Leu-Asp-Arg-3806
B6: JAL-0756 (peptide)
peptide: Octanoyl-[dV]FGLKLDRI-NH2
B7: JAL-0787 (peptide)
peptide: 1270-AFGLKLDRI-NH2
modifications: not fully specified (some residues); printed as 1270-ala-Phe-Gly-Leu-Lys-Leu-Asp-Arg-Ile-NH2; reading uncertain
B8: JAL-0826 (peptide)
peptide: Octanoyl-[ala][ala]FGLKLDR[5119]
modifications: reading uncertain; also: printed as Occ-ala-ala-Phe-Gly-Leu-Lys-Leu-Asp-Arg-5119
B9: JAL-0776 (peptide)
peptide: Octanoyl-[dA][dA]FGLK[NMeL]DRI-NH2
B10: JAL-0781_01 (peptide)
peptide: Octanoyl-[dA][dA]FGLPLDRI-NH2
B11: JAL-0825 (peptide)
peptide: Octanoyl-[ala][ala]FGLKLDR[5116]
modifications: reading uncertain; also: printed as Occ-ala-ala-Phe-Gly-Leu-Lys-Leu-Asp-Arg-5116
B12: JAL-0762 (peptide)
peptide: Octanoyl-[dAbu]FGLKLDRI-NH2
B13: JAL-0775 (peptide)
peptide: Octanoyl-[dA][dA]FGLK[Nle]DRI-NH2
B14: JAL-0770 (peptide)
peptide: Octanoyl-[dA][dA]FGLKIDRI-NH2
B15: JAL-0763 (peptide)
peptide: Octanoyl-[dS]FGLKLDRI-NH2
B16: JAL-0824 (peptide)
peptide: Octanoyl-AAFGLKLDR[873]
modifications: not fully specified (some residues); printed as Occ-ala-ala-Phe-Gly-Leu-Lys-Leu-Asp-Arg-873; reading uncertain
B17: JAL-0754 (peptide)
peptide: Octanoyl-[dA][dA]FGLKLDR[2797]
modifications: reading uncertain; also: printed as Occ-ala-ala-Phe-Gly-Leu-Lys-Leu-Asp-Arg-2797
B18: JAL-0789 (peptide)
peptide: Octanoyl-AAFGLKLDR[1860]
modifications: not fully specified (some residues); printed as Occ-ala-ala-Phe-Gly-Leu-Lys-Leu-Asp-Arg-1860; reading uncertain
B19: JAL-1935 (peptide)
peptide: [Occ][Sni]F[leu]LX[NMeL]DRI-NH2
modifications: not fully specified (residue 6); printed as Occ-Sni-Phe-leu-Leu-Tap(Asp(-))-Nml-Asp-Arg-Ile-NH2
B20: JAL-0760 (peptide)
peptide: [Occ][cPrCO(1-aminomethyl)]FGLKLDRI-NH2
B21: JAL-0771 (peptide)
peptide: XAAFGLKVDRI
modifications: not fully specified (residue 1, C-terminus); printed as Occ-ala-ala-Phe-Gly-Leu-Lys-Val-Asp-Arg-Ile-NH2
B22: JAL-0801 (peptide)
peptide: Octanoyl-AAFGLKLDR[1906]
modifications: not fully specified (some residues); printed as Occ-ala-ala-Phe-Gly-Leu-Lys-Leu-Asp-Arg-1906; reading uncertain
B23: JAL-0772 (peptide)
peptide: Octanoyl-[dA][dA]FGLK[Chg]DRI-NH2
B24: JAL-0797 (peptide)
peptide: Octanoyl-AAFGLKLDR[Che]
modifications: not fully specified (some residues); printed as Occ-ala-ala-Phe-Gly-Leu-Lys-Leu-Asp-Arg-Che; reading uncertain
B25: JAL-0790 (peptide)
peptide: Octanoyl-AAFGLKLDR[504]
modifications: not fully specified (some residues); printed as Occ-ala-ala-Phe-Gly-Leu-Lys-Leu-Asp-Arg-504; reading uncertain
B26: JAL-0788 (peptide)
peptide: 4956-AFGLKLDRI-NH2
modifications: not fully specified (some residues); printed as 4956-ala-Phe-Gly-Leu-Lys-Leu-Asp-Arg-Ile-NH2; reading uncertain
B27: JAL-0782 (peptide)
peptide: Octanoyl-AAFGL[NMeK]LDRI-NH2
modifications: not fully specified (some residues); printed as Occ-ala-ala-Phe-Gly-Leu-Nmk-Leu-Asp-Arg-Ile-
B28: JAL-0786 (peptide)
peptide: 933-AFGLKLDRI-NH2
modifications: not fully specified (some residues); printed as 933-ala-Phe-Gly-Leu-Lys-Leu-Asp-Arg-Ile-NH2; reading uncertain
B29: JAL-0799 (peptide)
peptide: Octanoyl-AAFGLKLDR[1934]
modifications: not fully specified (some residues); printed as Occ-ala-ala-Phe-Gly-Leu-Lys-Leu-Asp-Arg-1934; reading uncertain
B30: JAL-0769 (peptide)
peptide: Octanoyl-[dA][dA]FGLKLDRI-NH2
modifications: not fully specified (some residues); printed as Occ-ala-ala-Phe-Gly-Leu-Lys-leu-Asp-Arg-Ile-NH2
B31: JAL-0758 (peptide)
peptide: [Occ][dTle]FGLKLDRI-NH2
B32: JAL-0798 (peptide)
peptide: Octanoyl-AAFGLKLDR[1859]
modifications: not fully specified (some residues); printed as Occ-ala-ala-Phe-Gly-Leu-Lys-Leu-Asp-Arg-1859; reading uncertain
B33: JAL-0761 (peptide)
peptide: [Occ][Ac3c]FGLKLDRI-NH2

Target: T1, natriuretic peptide receptor-B
Assay: cell-based or functional assay

Binder	EC50 group, cGMP in GTM-3 cells [µM]
B1	≤ 1
B2	≤ 15
B3	≤ 5
B4	≤ 15
B5	≤ 15
B6	≤ 15
B7	≤ 15
B8	≤ 5
B9	≤ 15
B10	≤ 5
B11	≤ 15
B12	≤ 15
B13	≤ 15
B14	≤ 15
B15	≤ 15
B16	≤ 15
B17	≤ 5

Binder	EC50 group, cGMP in GTM-3 cells [µM]
B18	≤ 5
B19	≤ 5
B20	≤ 15
B21	≤ 15
B22	≤ 5
B23	≤ 15
B24	≤ 5
B25	≤ 15
B26	≤ 15
B27	≤ 15
B28	≤ 15
B29	≤ 5
B30	≤ 15
B31	≤ 15
B32	≤ 15
B33	≤ 15
